Measurements taken from patent WO2019173771A1 (dated 2019).

Columns and labels:
[1] = target: T1, recombinant human CD147-Fc chimeric protein (R&D Systems, cat. no. 927-EMN-050), deglycosylated (human, UniProt P35613-2 25-205, deglycosylated of N- and simple O-linked carbohydrates (Protein Deglycosylation Mix II or Enzymatic Protein Deglycosylation Kit; migrated at 52 and 48 kDa)); assay: ELISA, deglycosylated CD147-Fc adsorbed at 1 ug/mL
T1 construct: Same bought protein as m6 after enzymatic deglycosylation; also called deglycosylated CD147-Fc fusion protein; deglycosylated CD147 antigen; not shown: Fc part of the bought chimeric protein
T1 sequence (looked up): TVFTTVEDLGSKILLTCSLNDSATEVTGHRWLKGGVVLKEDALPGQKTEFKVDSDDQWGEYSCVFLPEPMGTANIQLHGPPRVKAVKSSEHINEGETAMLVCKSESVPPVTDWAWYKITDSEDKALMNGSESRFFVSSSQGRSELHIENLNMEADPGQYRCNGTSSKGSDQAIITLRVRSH

[2] = target: T2, recombinant human CD147-Fc chimeric protein (R&D Systems, cat. no. 927-EMN-050), glycosylated (human, UniProt P35613-2 25-205, glycosylated (as supplied; migrated at about 62 kDa)); assay: ELISA, CD147-Fc adsorbed at 1 ug/mL
T2 construct: Bought protein; also called glycosylated CD147-Fc fusion protein; glycosylated CD147 antigen; not shown: Fc part of the bought chimeric protein
T2 sequence (looked up): T1 sequence (looked up)

[3] = target: T3, cynomolgus CD147 on the cynomolgus primary kidney epithelial cell line (cynomolgus monkey); assay: FACS on the cynomolgus primary kidney epithelial cell line, Alexa Fluor 647 anti-human IgG
T3 construct: whole, on cells; also called cynomolgus monkey CD147

B1: humanized anti-human CD147 hu3A11 antibody (3A11 Lc1 / Hc1) (antibody, V domains shown)
VH: EVQLVESGGGLVQPGGSLRLSCAASGFTFSNYWMDWVRQAPGKGLEWVGEIRLKSYNYATHYAASVKGRFTISRDDSKNSVYLQMNSLKTEDTAVYYCTAAGTDYWGQGTLVTVSS
VL: DIQMTQSPSSLSASVGDRVTITCRASQSVRTDVGWYQQKPGKAPKLLIYYSSNRYTGVPSRFSGSGSGTDFTLTISSLQPEDFATYYCQQDYSSPYTFGQGTKLEIK
notes: also called hu 3A11 Lc1 / Hc1; huHc1 / huLc1
binding result [1]: binds | binding result [2]: binds | Kd [3]: 1.3 nM
